B1: PDS5B (parent)
chain: IYKKYALQSAAGKDAAKQIAWIKD

Variants of: B1
Assay: protein stability index of a GFP-peptide fusion (GPS, HEK-293T) (PSI 1-6); higher = more stable
Details: c terminus: a fixed tail appended
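Also: lentivirally expressed fusions sorted by FACS into six bins by GFP to DsRed ratio, PSI derived from sequencing read proportions per bin multiplied by bin number.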

| Variant | protein stability index |
| --- | --- |
| IYKKYALQSAAGKDAAKQYAWIKD [I19Y] | 1.99 |
| IYKKYALQSAAGKDAAKQNAWIKD [I19N] | 3.59 |
| IYKKYALQSAAGKDAAKQTAWIKD [I19T] | 2.77 |
| IYKKYALQSAAGKDAAKQRAWIKD [I19R] | 2.38 |
| IYKKYALQSAAGKDAAKQCAWIKD [I19C] | 2.38 |
| IYKKYALQSAAGKDAAKQLAWIKD [I19L] | 1.81 |
| IYKKYALQSAAGKDAAKQKAWIKD [I19K] | 3.01 |
| IYKKYALQSAAGKDAAKQMAWIKD [I19M] | 1.97 |
| IYKKYALQSAAGKDAAKQFAWIKD [I19F] | 2.29 |
| IYKKYALQSAAGKDAAKQAAWIKD [I19A] | 2.48 |
| IYKKYALQSAAGKDAAKQSAWIKD [I19S] | 2.6 |
| IYKKYALQSAAGKDAAKQWAWIKD [I19W] | 1.93 |
| IYKKYALQSAAGKDAAKQVAWIKD [I19V] | 2.49 |
| IYKKYALQSAAGKDAAKQQAWIKD [I19Q] | 2.52 |
| IYKKYALQSAAGKDAAKQGAWIKD [I19G] | 3.46 |
| IYKKYALQSAAGKDAAKQHAWIKD [I19H] | 3.34 |
| IYKKYALQSAAGKDAAKQPAWIKD [I19P] | 3.11 |
| IYKKYALQSAAGKDAAKQDAWIKD [I19D] | 3.79 |
| IYKKYALQSAAGKDAPKQIAWIKD [A16P] | 2.05 |
| IYKKYALQSAAGKDANKQIAWIKD [A16N] | 2.39 |
| IYKKYALQSAAGKDAVKQIAWIKD [A16V] | 2.98 |
| IYKKYALQSAAGKDAGKQIAWIKD [A16G] | 2.92 |
| IYKKYALQSAAGKDAQKQIAWIKD [A16Q] | 2.35 |
| IYKKYALQSAAGKDARKQIAWIKD [A16R] | 2.12 |

| Variant | protein stability index |
| --- | --- |
| IYKKYALQSAAGKDAFKQIAWIKD [A16F] | 1.76 |
| IYKKYALQSAAGKDAKKQIAWIKD [A16K] | 2.33 |
| IYKKYALQSAAGKDAIKQIAWIKD [A16I] | 2.47 |
| IYKKYALQSAAGKDADKQIAWIKD [A16D] | 2.75 |
| IYKKYALQSAAGKDASKQIAWIKD [A16S] | 2.47 |
| IYKKYALQSAAGKDALKQIAWIKD [A16L] | 2.09 |
| IYKKYALQSAAGKDAWKQIAWIKD [A16W] | 2.11 |
| IYKKYALQSAAGKDAMKQIAWIKD [A16M] | 2.02 |
| IYKKYALQSAAGKDAHKQIAWIKD [A16H] | 2.29 |
| IYKKYALQSAAGKDAYKQIAWIKD [A16Y] | 2.05 |
| IYKKYALQSAAGKDAEKQIAWIKD [A16E] | 2.82 |
| IYKKYALQSAAGKDATKQIAWIKD [A16T] | 2.46 |
| IYKKYALQSAAGKDACKQIAWIKD [A16C] | 2.16 |
| IYKKYALQSAAGKDAATQIAWIKD [K17T] | 2.92 |
| IYKKYALQSAAGKDAAEQIAWIKD [K17E] | 3.42 |
| IYKKYALQSAAGKDAAQQIAWIKD [K17Q] | 2.19 |
| IYKKYALQSAAGKDAAAQIAWIKD [K17A] | 2.48 |
| IYKKYALQSAAGKDAAMQIAWIKD [K17M] | 1.38 |
| IYKKYALQSAAGKDAADQIAWIKD [K17D] | 3.27 |
| IYKKYALQSAAGKDAAPQIAWIKD [K17P] | 2.51 |
| IYKKYALQSAAGKDAARQIAWIKD [K17R] | 2.67 |
| IYKKYALQSAAGKDAAGQIAWIKD [K17G] | 2.35 |
| IYKKYALQSAAGKDAAYQIAWIKD [K17Y] | 1.66 |
| IYKKYALQSAAGKDAAIQIAWIKD [K17I] | 1.79 |

| Variant | protein stability index |
| --- | --- |
| IYKKYALQSAAGKDAAWQIAWIKD [K17W] | 1.63 |
| IYKKYALQSAAGKDAASQIAWIKD [K17S] | 2.67 |
| IYKKYALQSAAGKDAAVQIAWIKD [K17V] | 2.12 |
| IYKKYALQSAAGKDAAFQIAWIKD [K17F] | 1.32 |
| IYKKYALQSAAGKDAAHQIAWIKD [K17H] | 2.89 |
| IYKKYALQSAAGKDAACQIAWIKD [K17C] | 2.04 |
| IYKKYALQSAAGKDAALQIAWIKD [K17L] | 2.07 |
| IYKKYALQSAAGKDAANQIAWIKD [K17N] | 2.51 |
| IYKKYALQSAVGKDAAKQIAWIKD [A11V] | 2.29 |
| IYKKYALQSAFGKDAAKQIAWIKD [A11F] | 1.75 |
| IYKKYALQSAPGKDAAKQIAWIKD [A11P] | 2.27 |
| IYKKYALQSATGKDAAKQIAWIKD [A11T] | 2.15 |
| IYKKYALQSAGGKDAAKQIAWIKD [A11G] | 2.65 |
| IYKKYALQSADGKDAAKQIAWIKD [A11D] | 3.03 |
| IYKKYALQSAKGKDAAKQIAWIKD [A11K] | 2.5 |
| IYKKYALQSANGKDAAKQIAWIKD [A11N] | 2.61 |
| IYKKYALQSAWGKDAAKQIAWIKD [A11W] | 1.82 |
| IYKKYALQSALGKDAAKQIAWIKD [A11L] | 1.8 |
| IYKKYALQSARGKDAAKQIAWIKD [A11R] | 1.75 |
| IYKKYALQSAQGKDAAKQIAWIKD [A11Q] | 2.69 |
| IYKKYALQSAMGKDAAKQIAWIKD [A11M] | 1.78 |
| IYKKYALQSACGKDAAKQIAWIKD [A11C] | 1.58 |
| IYKKYALQSAIGKDAAKQIAWIKD [A11I] | 1.73 |
| IYKKYALQSAHGKDAAKQIAWIKD [A11H] | 1.75 |

| Variant | protein stability index |
| --- | --- |
| IYKKYALQSAYGKDAAKQIAWIKD [A11Y] | 1.8 |
| IYKKYALQSASGKDAAKQIAWIKD [A11S] | 2.3 |
| IYKKYALQSAEGKDAAKQIAWIKD [A11E] | 2.43 |
| IYKKYALQSAAGYDAAKQIAWIKD [K13Y] | 2.92 |
| IYKKYALQSAAGWDAAKQIAWIKD [K13W] | 1.84 |
| IYKKYALQSAAGADAAKQIAWIKD [K13A] | 2.93 |
| IYKKYALQSAAGPDAAKQIAWIKD [K13P] | 2.4 |
| IYKKYALQSAAGVDAAKQIAWIKD [K13V] | 2 |
| IYKKYALQSAAGDDAAKQIAWIKD [K13D] | 2.6 |
| IYKKYALQSAAGCDAAKQIAWIKD [K13C] | 1.94 |
| IYKKYALQSAAGLDAAKQIAWIKD [K13L] | 2.14 |
| IYKKYALQSAAGSDAAKQIAWIKD [K13S] | 2.28 |
| IYKKYALQSAAGEDAAKQIAWIKD [K13E] | 2.55 |
| IYKKYALQSAAGHDAAKQIAWIKD [K13H] | 2.29 |
| IYKKYALQSAAGGDAAKQIAWIKD [K13G] | 2.22 |
| IYKKYALQSAAGQDAAKQIAWIKD [K13Q] | 2.1 |
| IYKKYALQSAAGTDAAKQIAWIKD [K13T] | 2.3 |
| IYKKYALQSAAGMDAAKQIAWIKD [K13M] | 2.17 |
| IYKKYALQSAAGRDAAKQIAWIKD [K13R] | 2.77 |
| IYKKYALQSAAGNDAAKQIAWIKD [K13N] | 2.27 |
| IYKKYALQSAAGIDAAKQIAWIKD [K13I] | 2.16 |
| IYKKYALQSAAGFDAAKQIAWIKD [K13F] | 1.93 |

Reference: the supplement of paper PMC10567573
